Results on three molecules are retold here after article PMC4923194, “The Crystal Structure of the C-Terminal Domain of the Salmonella enterica PduO Protein: An Old Fold with a New Heme-Binding Mode” (Frontiers in Microbiology, 2016).

For data set [1], the target named is PduOC-His18Ala (H18A) mutant (Salmonella enterica subsp. enterica serovar Typhimurium). Briefly: SEC-MALS; Superdex 200 increase 10/300 GL in 100 mM Tris-HCl pH 8, 150 mM NaCl, with multi-angle static light scattering and refractive index detectors; wild type as PduOC:heme, H18A without heme. On the technique in general: SEC sorts molecules by how far they enter the pores of the column.

In data set [2] the target is T1, PduO C-terminal domain (PduOC) (Salmonella enterica, UniProt A0A0F6B395).
T1 construct: C-terminal domain PduOC, 147 residues, His-tag-free; octamer with 4 hemes
Briefly: crystal structure ([…] Å) and ITC; UV/Vis titration. In kind it is binding.

Data set [3] deals with the molecule itself. Briefly: SEC; gel filtration of the PduOC apoprotein (heme extracted); data not shown.
Data set [4] deals with the molecule itself. Briefly: SEC-MALS; Superdex 200 increase 10/300 GL in 100 mM Tris-HCl pH 8, 150 mM NaCl, with multi-angle static light scattering and refractive index detectors; wild type as PduOC:heme, H18A without heme.

With “PduOC-His18Ala (H18A) mutant (domain or fragment)”, the stoichiometry N – broadly, a count of units in the complex or per binding partner – in data set [1] was 2.

As for `C=CC1=C(C)C2=Cc3c(C=C)c(C)c4[n]3[Fe][n]3c(c(C)c(CCC(=O)O)c3=CC3=NC(=C4)C(C)=C3CCC(=O)O)=CC1=N2` [heme B], binding in data set [2] was put at a Kd of 160 nM.

B1: C-terminal domain of the Salmonella enterica PduO protein (PduOC) (domain or fragment)
chain: KETTPVALSFHDLHQLTRAAVERAQQLQVPVVVSIVDAHGTETVTWRMPDALLVSSELAPKKAWTAVAMKTATHELSDVVQPGAALYGLESHLQGKVVTFGGGYALWRDGILIGGLGISGGSVEQDMDIAQTAIAAINVGTHQ
notes: PduO, ATP:Cob(I)alamin adenosyltransferase of S. enterica subsp. enterica serovar Typhimurium; C-terminal domain (PduOC); the His-tag-free monomer has 147 residues; the N-terminal domain (PduON) has 197 residues; excess heme B added to the lysate for crystallography; Residues left by the pETM11 vector after TEV cleavage are probably counted in the 147 residues (surmise); also called PduOC:heme; …
With B1, the entries for the “stoichiometry N” value in data set [3] and in data set [4] were 2 and 8, respectively.
